Results on one molecule are retold here after article PMC7904846, “Nanobody-based chimeric antigen receptor T cells designed by CRISPR/Cas9 technology for solid tumor immunotherapy” (Signal Transduction and Targeted Therapy, 2021).

The target of this experiment is T1, CD105 (Homo sapiens, UniProt P17813).
T1 construct: CD105 (endoglin), human; also called endoglin; CD105 protein
Kind of experiment: SPR; CD105 Nbs (10 ug/mL) immobilised on PlexArray Nanocapture Sensor Chips; different concentrations injected at 3.0 uL/s; PlexArray HT system; regeneration with 0.05 mol/L NaOH; 25 °C; triplicate. The conditions noted are these: both partners purified. (In general: SPR reads the build-up and loss of mass on a sensor chip optically.)

T1 sequence (P17813 26-658): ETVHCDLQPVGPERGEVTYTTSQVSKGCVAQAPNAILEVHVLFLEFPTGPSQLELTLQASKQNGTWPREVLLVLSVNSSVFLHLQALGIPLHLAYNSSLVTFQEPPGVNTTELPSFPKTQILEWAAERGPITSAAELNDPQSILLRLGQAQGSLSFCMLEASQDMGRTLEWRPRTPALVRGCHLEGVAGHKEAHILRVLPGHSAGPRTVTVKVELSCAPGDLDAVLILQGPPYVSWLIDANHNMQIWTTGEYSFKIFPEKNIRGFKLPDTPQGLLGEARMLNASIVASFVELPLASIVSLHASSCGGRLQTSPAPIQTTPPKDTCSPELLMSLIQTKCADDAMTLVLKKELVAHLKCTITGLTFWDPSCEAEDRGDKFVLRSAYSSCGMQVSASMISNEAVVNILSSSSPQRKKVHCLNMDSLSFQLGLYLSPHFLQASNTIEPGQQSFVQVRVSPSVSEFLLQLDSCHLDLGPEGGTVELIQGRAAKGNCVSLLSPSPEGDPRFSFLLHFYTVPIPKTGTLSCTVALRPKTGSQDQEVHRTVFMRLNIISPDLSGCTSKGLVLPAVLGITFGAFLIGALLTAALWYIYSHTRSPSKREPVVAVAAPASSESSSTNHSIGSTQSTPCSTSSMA

B1: Nb C184 (VHH)
VHH: QVQLQESGGGSVQAGGSLRLSCVASGYTVSRGYMGWFRQAPGKEREAVAAIRTGSGSTYYADSVKGRFTISQDNAKNTVYLQMNSLKHEDTGMYYCAASLWYGGNWQSWGSYNYWGQGTQVTVSS
notes: camel VHH selected by phage display against CD105; Cloned in phagemid pMECS, which gives C-terminal hemagglutinin-His6-tagged Nbs; In the CAR the same VHH is joined to the CD8a hinge and transmembrane domain, 4-1BB and CD3zeta; also called anti-CD105 Nanobody (C184); CD105 Nb
As to B1, the binding result was “binds”.
